For one data set, the target named is PdxB (Escherichia coli, UniProt P05459). The data set is described as follows: coupled assay with SerC and PdxA, NADH formation at […] nm. Format: biochemical.
Substrate in data set [1]: O=C(O)CC(=O)C(=O)O
The data set is described as follows: purified protein. The following applies: 4PE 29 μM, TND buffer pH 8.0, room temperature. Format: biochemical, Escherichia coli.

Substrate in data set [2]: O=C(O)[C@H](O)[C@H](O)COP(=O)(O)O
Description: purified protein. Format: biochemical, Escherichia coli. Particulars: αKG 2 mM, TND buffer pH 8.0, room temperature.

Substrate in data set [3]: O=C(O)CCC(=O)C(=O)O
Description: purified protein. The following applies: 4PE 29 μM, TND buffer pH 8.0, room temperature. Format: biochemical, Escherichia coli.

Substrate in data set [4]: CC(=O)C(=O)O
Description: purified protein. The following applies: 4PE 29 μM, TND buffer pH 8.0, room temperature. In kind it is biochemical, Escherichia coli.

The data set “SEC” deals with the molecule itself. Description: SEC. A general note: SEC sorts molecules by how far they enter the pores of the column.

The text below walks through data of publication PMC3295541 (Biochemistry, 2010).

The IC50 is the midpoint of a concentration-inhibition curve. A higher IC50 goes with lower potency. In general, Km refers to the substrate concentration at which the rate is half of its maximum. Usually kcat stands for the maximal rate divided by the concentration of active sites. What is called kcat/Km is the second-order rate constant that governs catalysis at low substrate concentration. A word on the stoichiometry N: it is the number of molecules, sites or subunits per partner or assembly.

`O=C(O)CC[C@H](O)C(=O)O` [L-2-HGA] had an IC50 at PdxB greater than 2000 µM.

B1: PdxB (4-phospho-D-erythronate dehydrogenase) from E. coli (enzyme, UniProt P05459 1-378, looked up)
chain: MKILVDENMPYARDLFSRLGEVTAVPGRPIPVAQLADADALMVRSVTKVNESLLAGKPIKFVGTATAGTDHVDEAWLKQAGIGFSAAPGCNAIAVVEYVFSSLLMLAERDGFSLYDRTVGIVGVGNVGRRLQARLEALGIKTLLCDPPRADRGDEGDFRSLDELVQRADILTFHTPLFKDGPYKTLHLADEKLIRSLKPGAILINACRGAVVDNTALLTCLNEGQKLSVVLDVWEGEPELNVELLKKVDIGTSHIAGYTLEGKARGTTQVFEAYSKFIGHEQHVALDTLLPAPEFGRITLHGPLDQPTLKRLVHLVYDVRRDDAPLRKVAGIPGEFDKLRKNYLERREWSSLYVICDDASAASLLCKLGFNAVHHPAR
As to B1, the Km came to 86 ± 19 µM in the data set “purified protein [1]”, 2.9 ± 1.3 µM in “purified protein [2]”, 93 ± 19 µM in the data set “purified protein [3]” and 128 ± 20 µM in “purified protein [4]”. The values for the kcat in “purified protein [1]”, in “purified protein [3]” and in the data set “purified protein [4]” were 1.1 ± 0.31 s⁻¹, 1 ± 0.24 s⁻¹ and 1.3 ± 0.14 s⁻¹, respectively. Further, the kcat/Km in “purified protein [1]” is 13000 ± 2100 M⁻¹ s⁻¹; in “purified protein [3]” it was 11000 ± 2400 M⁻¹ s⁻¹; in the data set “purified protein [4]”, 9900 ± 160 M⁻¹ s⁻¹. For the same molecule, the “stoichiometry N” value in “SEC” stood at 2.
